One assay addresses T1, integrin αVβ3 (UniProt P06756 31-992; P05106 27-718).
T1 construct: Coated on the ELISA plate
In words: ELISA, coated integrin, anti-MICA-HRP. The method, then: (§1) The ability of the soluble MICA molecules in each of the concentrated supernatants to bind target molecules was assayed by an ELISA using the intended target proteins, integrin αVβ3 or αVβ5, as capture agents on the ELISA plate. After the respective integrins were adhered to the bottoms of the wells of the ELISA plate, the wells were washed and blocked, as well known in the field. Each sample (100 μl) of soluble MICA produced and secreted by 293T cells was added to wells containing αVβ3 or αVβ5, incubated and washed. The soluble MICA molecules captured by the integrins were detected by HRP-conjugated antibody to human MICA developed with Ultra TMB-ELISA substrate and the optical densities read. The quantity of soluble MICA in each sample was determined by the MICA-specific ELISA. […] The ELISA signal from a non-binding, negative control MICA (generated by pSW273) was subtracted from each integrin binding signal.
(In an ELISA, binding on a coated surface is turned into a signal by an enzyme label.)

Another assay has as its target T2, integrin αVβ5 (UniProt P06756 31-992; P18084 24-719).
T2 construct: Coated on the ELISA plate
In words: ELISA, coated integrin, anti-MICA-HRP. The method, then: as §1

T1 sequence (P06756 31-992, chain 1 of 2): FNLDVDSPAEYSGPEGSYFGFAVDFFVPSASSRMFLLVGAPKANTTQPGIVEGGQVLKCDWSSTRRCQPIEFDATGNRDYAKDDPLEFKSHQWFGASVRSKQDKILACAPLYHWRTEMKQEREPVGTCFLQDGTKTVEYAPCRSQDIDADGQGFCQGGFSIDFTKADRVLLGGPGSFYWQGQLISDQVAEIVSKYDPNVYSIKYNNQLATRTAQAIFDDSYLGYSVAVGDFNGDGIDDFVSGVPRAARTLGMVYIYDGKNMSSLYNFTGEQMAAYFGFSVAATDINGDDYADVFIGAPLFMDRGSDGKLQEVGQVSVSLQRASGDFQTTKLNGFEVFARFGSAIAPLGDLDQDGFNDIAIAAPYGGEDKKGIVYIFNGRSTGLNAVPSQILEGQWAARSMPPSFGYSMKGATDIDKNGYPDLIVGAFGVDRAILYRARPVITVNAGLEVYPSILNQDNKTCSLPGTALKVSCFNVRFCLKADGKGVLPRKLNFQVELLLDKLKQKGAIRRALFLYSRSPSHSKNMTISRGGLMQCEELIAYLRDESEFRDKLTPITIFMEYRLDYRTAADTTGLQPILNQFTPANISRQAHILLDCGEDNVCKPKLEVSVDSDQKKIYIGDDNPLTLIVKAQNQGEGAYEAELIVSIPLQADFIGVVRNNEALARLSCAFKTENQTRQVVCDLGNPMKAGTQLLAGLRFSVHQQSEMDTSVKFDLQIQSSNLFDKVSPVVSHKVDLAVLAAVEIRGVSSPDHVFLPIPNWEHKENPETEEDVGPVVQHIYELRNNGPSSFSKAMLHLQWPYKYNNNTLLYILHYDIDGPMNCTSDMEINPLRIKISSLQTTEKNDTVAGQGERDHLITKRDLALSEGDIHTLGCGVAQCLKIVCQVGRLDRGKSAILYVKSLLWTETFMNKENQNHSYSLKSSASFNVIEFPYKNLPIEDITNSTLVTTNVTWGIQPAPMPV
T1 sequence (P05106 27-718, chain 2 of 2): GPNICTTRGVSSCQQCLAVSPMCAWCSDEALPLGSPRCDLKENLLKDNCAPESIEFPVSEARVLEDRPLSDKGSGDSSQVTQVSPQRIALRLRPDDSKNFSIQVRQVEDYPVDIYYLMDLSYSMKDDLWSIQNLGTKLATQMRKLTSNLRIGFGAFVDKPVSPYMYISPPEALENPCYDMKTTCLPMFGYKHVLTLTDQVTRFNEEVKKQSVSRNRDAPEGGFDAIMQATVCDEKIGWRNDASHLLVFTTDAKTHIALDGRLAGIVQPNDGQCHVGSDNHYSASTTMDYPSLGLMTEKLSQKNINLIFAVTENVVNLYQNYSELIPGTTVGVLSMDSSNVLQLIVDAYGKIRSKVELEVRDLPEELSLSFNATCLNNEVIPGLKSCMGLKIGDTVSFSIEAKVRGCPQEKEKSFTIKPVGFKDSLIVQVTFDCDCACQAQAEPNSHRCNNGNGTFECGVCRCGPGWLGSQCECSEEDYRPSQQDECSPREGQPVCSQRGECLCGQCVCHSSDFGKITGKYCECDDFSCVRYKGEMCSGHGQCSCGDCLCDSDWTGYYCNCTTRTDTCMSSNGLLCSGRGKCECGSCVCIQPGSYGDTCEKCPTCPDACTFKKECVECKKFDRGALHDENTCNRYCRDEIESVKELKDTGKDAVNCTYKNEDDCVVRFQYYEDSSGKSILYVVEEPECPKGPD
T2 sequence (P06756 31-992, chain 1 of 2): as the sequence (P06756 31-992, chain 1 of 2) above
T2 sequence (P18084 24-719, chain 2 of 2): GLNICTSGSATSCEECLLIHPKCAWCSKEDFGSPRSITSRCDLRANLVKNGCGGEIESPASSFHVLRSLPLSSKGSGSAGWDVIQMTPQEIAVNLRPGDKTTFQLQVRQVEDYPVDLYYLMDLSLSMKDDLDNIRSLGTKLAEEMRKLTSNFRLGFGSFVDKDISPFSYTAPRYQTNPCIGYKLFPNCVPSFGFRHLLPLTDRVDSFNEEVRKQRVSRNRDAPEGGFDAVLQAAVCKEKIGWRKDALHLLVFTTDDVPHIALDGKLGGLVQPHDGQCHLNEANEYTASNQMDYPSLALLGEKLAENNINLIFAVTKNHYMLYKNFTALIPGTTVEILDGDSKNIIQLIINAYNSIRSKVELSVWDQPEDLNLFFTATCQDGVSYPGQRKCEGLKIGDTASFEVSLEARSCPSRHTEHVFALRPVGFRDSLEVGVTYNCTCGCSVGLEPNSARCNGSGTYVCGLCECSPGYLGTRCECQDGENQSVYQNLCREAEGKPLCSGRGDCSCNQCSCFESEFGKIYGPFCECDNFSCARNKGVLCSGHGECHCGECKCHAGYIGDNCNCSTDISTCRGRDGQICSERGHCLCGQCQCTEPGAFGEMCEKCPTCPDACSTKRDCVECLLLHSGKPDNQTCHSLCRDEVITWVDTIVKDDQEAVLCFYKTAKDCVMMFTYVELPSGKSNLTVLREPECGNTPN

B1: soluble MICA generated from pKK37 (loop 1 insert 3.2) (designed binder)
chain: HHHHHHEPHSLRYNLTVLSWDGSVQSGFLTEVHLDGQPFLRCDRQKCRAKPQGQWAEDVLGNKTWDRETRDLTGNGKDLRMTLAHIKDQKEGLHSLQEIRVCEIHEDNSTRSSQHFYYDGELFLSQNLETEEWTMPQSSRAQTLAMNVRNFLKEDAMKTKTHYHAMHADCLQELRRYLKSGVVLRRTVPPMVNVTRTSRGDHPRTQVTCRASGFYPWNITLSWRQDGVSLSHDTQQWGDVLPDGNGTYQTWVATRICQGEEQRFTCYMEHSGNHSTHPVPSGK
notes: From pKK34 (His6, Glu125); secreted by 293T cells; also called 1-3.2
Consider B1, for which, in the assay with integrin αVβ3, the αvβ3 signal turned out to be 0.777 OD and the αvβ3 signal/ng came to 22.4 signal/ng MICA. In the assay with integrin αVβ5, this molecule came in with a αvβ5 signal of 0.779 OD and a αvβ5 signal/ng of 22.4 signal/ng MICA.

B2: soluble MICA generated from pKK44 (loop 1 insert extended 3.2sp) (designed binder)
chain: HHHHHHEPHSLRYNLTVLSWDGSVQSGFLTEVHLDGQPFLRCDRQKCRAKPQGQWAEDVLGNKTWDRETRDLTGNGKDLRMTLAHIKDQKEGLHSLQEIRVCEIHEDNSTRSSQHFYYDGELFLSQNLETEEWTMPQSSRAQTLAMNVRNFLKEDAMKTKTHYHAMHADCLQELRRYLKSGVVLRRTVPPMVNVTSGGSGGGSTSRGDHPRTQSGGSGGGVTCRASGFYPWNITLSWRQDGVSLSHDTQQWGDVLPDGNGTYQTWVATRICQGEEQRFTCYMEHSGNHSTHPVPSGK
notes: From pKK34 (His6, Glu125); secreted by 293T cells; also called 1-3.2sp
For the molecule B2, in the assay with integrin αVβ3, the αvβ3 signal turned out to be 0.41 OD and the αvβ3 signal/ng was determined as 8.92 signal/ng MICA. In the assay with integrin αVβ5, this molecule displayed a αvβ5 signal of 0.46 OD and a αvβ5 signal/ng of 10 signal/ng MICA.

B3: soluble MICA generated from pKK47 (loop 1 insert extended 5.3sp) (designed binder)
chain: HHHHHHEPHSLRYNLTVLSWDGSVQSGFLTEVHLDGQPFLRCDRQKCRAKPQGQWAEDVLGNKTWDRETRDLTGNGKDLRMTLAHIKDQKEGLHSLQEIRVCEIHEDNSTRSSQHFYYDGELFLSQNLETEEWTMPQSSRAQTLAMNVRNFLKEDAMKTKTHYHAMHADCLQELRRYLKSGVVLRRTVPPMVNVTSGGSGGGSHLARGDDLTYSGGSGGGVTCRASGFYPWNITLSWRQDGVSLSHDTQQWGDVLPDGNGTYQTWVATRICQGEEQRFTCYMEHSGNHSTHPVPSGK
notes: From pKK34 (His6, Glu125); secreted by 293T cells; also called 1-5.3sp
Consider B3, for which, in the assay with integrin αVβ3, the αvβ3 signal worked out at 0.294 OD and the αvβ3 signal/ng came out at 9.99 signal/ng MICA. In the assay with integrin αVβ5, this molecule had a αvβ5 signal of 0.276 OD and a αvβ5 signal/ng of 9.38 signal/ng MICA.

B4: soluble MICA generated from pKK45 (loop 1 insert extended 3.3sp) (designed binder)
chain: HHHHHHEPHSLRYNLTVLSWDGSVQSGFLTEVHLDGQPFLRCDRQKCRAKPQGQWAEDVLGNKTWDRETRDLTGNGKDLRMTLAHIKDQKEGLHSLQEIRVCEIHEDNSTRSSQHFYYDGELFLSQNLETEEWTMPQSSRAQTLAMNVRNFLKEDAMKTKTHYHAMHADCLQELRRYLKSGVVLRRTVPPMVNVTSGGSGGGSRVPRGDSDLTSGGSGGGVTCRASGFYPWNITLSWRQDGVSLSHDTQQWGDVLPDGNGTYQTWVATRICQGEEQRFTCYMEHSGNHSTHPVPSGK
notes: From pKK34 (His6, Glu125); secreted by 293T cells; also called 1-3.3sp
On to B4, for which, in the assay with integrin αVβ3, the αvβ3 signal is 0.393 OD and the αvβ3 signal/ng came to 9.51 signal/ng MICA. In the assay with integrin αVβ5, this molecule returned a αvβ5 signal of 0.41 OD and a αvβ5 signal/ng of 9.92 signal/ng MICA.

B5: soluble MICA generated from pKK38 (loop 1 insert 3.3) (designed binder)
chain: HHHHHHEPHSLRYNLTVLSWDGSVQSGFLTEVHLDGQPFLRCDRQKCRAKPQGQWAEDVLGNKTWDRETRDLTGNGKDLRMTLAHIKDQKEGLHSLQEIRVCEIHEDNSTRSSQHFYYDGELFLSQNLETEEWTMPQSSRAQTLAMNVRNFLKEDAMKTKTHYHAMHADCLQELRRYLKSGVVLRRTVPPMVNVTRVPRGDSDLTVTCRASGFYPWNITLSWRQDGVSLSHDTQQWGDVLPDGNGTYQTWVATRICQGEEQRFTCYMEHSGNHSTHPVPSGK
notes: From pKK34 (His6, Glu125); secreted by 293T cells; also called 1-3.3
In the case of B5, in the assay with integrin αVβ3, the αvβ3 signal amounted to 0.291 OD and the αvβ3 signal/ng was determined as 30.7 signal/ng MICA. In the assay with integrin αVβ5, this molecule displayed a αvβ5 signal of 0.291 OD and a αvβ5 signal/ng of 30.7 signal/ng MICA.

B6: soluble MICA generated from pKK39 (loop 1 insert 3.4) (designed binder)
chain: HHHHHHEPHSLRYNLTVLSWDGSVQSGFLTEVHLDGQPFLRCDRQKCRAKPQGQWAEDVLGNKTWDRETRDLTGNGKDLRMTLAHIKDQKEGLHSLQEIRVCEIHEDNSTRSSQHFYYDGELFLSQNLETEEWTMPQSSRAQTLAMNVRNFLKEDAMKTKTHYHAMHADCLQELRRYLKSGVVLRRTVPPMVNVTRSARGDSDHRVTCRASGFYPWNITLSWRQDGVSLSHDTQQWGDVLPDGNGTYQTWVATRICQGEEQRFTCYMEHSGNHSTHPVPSGK
notes: From pKK34 (His6, Glu125); secreted by 293T cells; also called 1-3.4
Consider B6, for which, in the assay with integrin αVβ3, the αvβ3 signal stood at 0.482 OD and the αvβ3 signal/ng was 18 signal/ng MICA. In the assay with integrin αVβ5, this molecule had a αvβ5 signal of 0.528 OD and a αvβ5 signal/ng of 19.7 signal/ng MICA.

B7: soluble MICA generated from pKK42 (loop 1 insert 5.3) (designed binder)
chain: HHHHHHEPHSLRYNLTVLSWDGSVQSGFLTEVHLDGQPFLRCDRQKCRAKPQGQWAEDVLGNKTWDRETRDLTGNGKDLRMTLAHIKDQKEGLHSLQEIRVCEIHEDNSTRSSQHFYYDGELFLSQNLETEEWTMPQSSRAQTLAMNVRNFLKEDAMKTKTHYHAMHADCLQELRRYLKSGVVLRRTVPPMVNVTHLARGDDLTYVTCRASGFYPWNITLSWRQDGVSLSHDTQQWGDVLPDGNGTYQTWVATRICQGEEQRFTCYMEHSGNHSTHPVPSGK
notes: From pKK34 (His6, Glu125); secreted by 293T cells; also called 1-5.3
In the assay with integrin αVβ3, B7 had a αvβ3 signal of 0.526 OD and a αvβ3 signal/ng of 21.2 signal/ng MICA. In addition, in the assay with integrin αVβ5, the αvβ5 signal stood at 0.565 OD and the αvβ5 signal/ng is 22.8 signal/ng MICA.

B8: soluble MICA generated from pKK40 (loop 1 insert 5.1) (designed binder)
chain: HHHHHHEPHSLRYNLTVLSWDGSVQSGFLTEVHLDGQPFLRCDRQKCRAKPQGQWAEDVLGNKTWDRETRDLTGNGKDLRMTLAHIKDQKEGLHSLQEIRVCEIHEDNSTRSSQHFYYDGELFLSQNLETEEWTMPQSSRAQTLAMNVRNFLKEDAMKTKTHYHAMHADCLQELRRYLKSGVVLRRTVPPMVNVTVTRGDTFTQSVTCRASGFYPWNITLSWRQDGVSLSHDTQQWGDVLPDGNGTYQTWVATRICQGEEQRFTCYMEHSGNHSTHPVPSGK
notes: From pKK34 (His6, Glu125); secreted by 293T cells; also called 1-5.1
For the molecule B8, in the assay with integrin αVβ3, the αvβ3 signal was found to be 0.485 OD and the αvβ3 signal/ng turned out to be 19.5 signal/ng MICA. In the assay with integrin αVβ5, this molecule returned a αvβ5 signal of 0.675 OD and a αvβ5 signal/ng of 27.1 signal/ng MICA.

B9: soluble MICA generated from pKK48 (loop 3 insert extended 3.2sp) (designed binder)
chain: EPHSLRYNLTVLSWDGSVQSGFLTEVHLDGQPFLRCDRQKCRAKPQGQWAEDVLGNKTWDRETRDLTGNGKDLRMTLAHIKDQKEGLHSLQEIRVCEIHEDNSTRSSQHFYYDGELFLSQNLETKEWTMPQSSRAQTLAMNVRNFLKEDAMKTKTHYHAMHADCLQELRRYLKSGVVLRRTVPPMVNVTRSEASEGNITVTCRASGFYPWNITLSWRQDGVSLSHDTQQWGDVLPDGNGTYQTWVATRISGGSGGGSTSRGDHPRTQSGGSGGGCYMEHSGNHSTHPVPSGK
notes: From pSW276 (no N-terminal His tag, Lys125); secreted by 293T cells; also called 3-3.2sp
B9: in the assay with integrin αVβ3, the αvβ3 signal amounted to 0.478 OD and the αvβ3 signal/ng was 6.08 signal/ng MICA. In the assay with integrin αVβ5, this molecule yielded a αvβ5 signal of 0.604 OD and a αvβ5 signal/ng of 7.68 signal/ng MICA.

B10: soluble MICA generated from pKK41 (loop 1 insert 5.2) (designed binder)
chain: HHHHHHEPHSLRYNLTVLSWDGSVQSGFLTEVHLDGQPFLRCDRQKCRAKPQGQWAEDVLGNKTWDRETRDLTGNGKDLRMTLAHIKDQKEGLHSLQEIRVCEIHEDNSTRSSQHFYYDGELFLSQNLETEEWTMPQSSRAQTLAMNVRNFLKEDAMKTKTHYHAMHADCLQELRRYLKSGVVLRRTVPPMVNVTRGDTFTQSVTCRASGFYPWNITLSWRQDGVSLSHDTQQWGDVLPDGNGTYQTWVATRICQGEEQRFTCYMEHSGNHSTHPVPSGK
notes: From pKK34 (His6, Glu125); secreted by 293T cells; also called 1-5.2
As to B10, in the assay with integrin αVβ3, the αvβ3 signal came to 0.516 OD and the αvβ3 signal/ng was determined as 17.7 signal/ng MICA. In the assay with integrin αVβ5, this molecule showed a αvβ5 signal of 0.65 OD and a αvβ5 signal/ng of 22.4 signal/ng MICA.

The record behind these values is US20150165065A1 (AVIDBIOTICS, published 2015).
